The supplement of paper PMC9112550, “Optimization of the antimicrobial peptide Bac7 by deep mutational scanning” (BMC Biology, 2022)
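Note: peptides expressed intracellularly from a pBAD plasmid library in pooled LB shake-flask culture, induced with 0.3% L-arabinose, DNA abundance read by NGS, three biological replicates, DESeq2 with apeglm shrinkage.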

These sequences were tested on Escherichia coli TOP10 (assay: shrunken log2 fold change of peptide-encoding DNA abundance (4.5 h post-induction vs induction); higher = less antimicrobial activity (less host growth inhibition)). Settings: time post-induction: 4.5 h; library: site-saturation at positions 5, 18, 19, 20.
In the case of RRIRIRPPRLPRPRPRPNLNPRP, the “shrunken log2 fold change” value is reported as -0.237. In the case of RRIRSRPPRLPRPRPRPLLNPRP, the “shrunken log2 fold change” value is reported as -0.117. In the case of RRIRSRPPRLPRPRPRPNEMPRP, the “shrunken log2 fold change” value is reported as -0.252. RRIRSRPPRLPRPRPRPNTMPRP was tested, and the “shrunken log2 fold change” value was -0.154. For RRIRNRPPRLPRPRPRPCALPRP, the “shrunken log2 fold change” value was -0.135. For RRIRMRPPRLPRPRPRPIPVPRP, the “shrunken log2 fold change” value was 0.0294. With RRIRRRPPRLPRPRPRPCSCPRP the “shrunken log2 fold change” value was -0.017. For RRIRKRPPRLPRPRPRPDKIPRP, the “shrunken log2 fold change” value was 0.0555. RRIRDRPPRLPRPRPRPPNEPRP was tested, and the “shrunken log2 fold change” value was -0.0231. With RRIRFRPPRLPRPRPRPDCTPRP the “shrunken log2 fold change” value was -0.0512. With RRIRGRPPRLPRPRPRPCWLPRP the “shrunken log2 fold change” value was -0.0298. With RRIRERPPRLPRPRPRPHCGPRP the “shrunken log2 fold change” value was -0.333. For RRIRPRPPRLPRPRPRPFKLPRP, the “shrunken log2 fold change” value was -0.00835. RRIRPRPPRLPRPRPRPVPAPRP was tested, and the “shrunken log2 fold change” value was 0.361. For RRIRLRPPRLPRPRPRPWAWPRP, the “shrunken log2 fold change” value was -0.0255. With RRIRIRPPRLPRPRPRPMIEPRP the “shrunken log2 fold change” value was -0.0216. RRIRFRPPRLPRPRPRPFNVPRP was tested, and the “shrunken log2 fold change” value was -0.0431. RRIRTRPPRLPRPRPRPIGSPRP was tested, and the “shrunken log2 fold change” value was 0.0344. With RRIRCRPPRLPRPRPRPQQEPRP the “shrunken log2 fold change” value was -0.051. In the case of RRIRKRPPRLPRPRPRPPEIPRP, the “shrunken log2 fold change” value is reported as 0.131. For RRIRGRPPRLPRPRPRPGFCPRP, the “shrunken log2 fold change” value was 0.925. For RRIRRRPPRLPRPRPRPSYIPRP, the “shrunken log2 fold change” value was -0.416. In the case of RRIRIRPPRLPRPRPRPCGNPRP, the “shrunken log2 fold change” value is reported as 0.00902. For RRIRYRPPRLPRPRPRPGPLPRP, the “shrunken log2 fold change” value was -0.151. With RRIRCRPPRLPRPRPRPQCLPRP the “shrunken log2 fold change” value was -0.442. In the case of RRIRKRPPRLPRPRPRPHQRPRP, the “shrunken log2 fold change” value is reported as -0.0795. RRIRDRPPRLPRPRPRPCIYPRP was tested, and the “shrunken log2 fold change” value was -0.0518. For RRIRPRPPRLPRPRPRPRGKPRP, the “shrunken log2 fold change” value was -0.0806. In the case of RRIRERPPRLPRPRPRPNDMPRP, the “shrunken log2 fold change” value is reported as -0.0595. For RRIRKRPPRLPRPRPRPMWVPRP, the “shrunken log2 fold change” value was -0.232. In the case of RRIRNRPPRLPRPRPRPVLIPRP, the “shrunken log2 fold change” value is reported as -0.27. For RRIRQRPPRLPRPRPRPPGQPRP, the “shrunken log2 fold change” value was 0.136. For RRIRARPPRLPRPRPRPSKKPRP, the “shrunken log2 fold change” value was 0.23. With RRIRIRPPRLPRPRPRPLMWPRP the “shrunken log2 fold change” value was -0.115. With RRIRPRPPRLPRPRPRPTADPRP the “shrunken log2 fold change” value was 0.407. In the case of RRIRVRPPRLPRPRPRPHFNPRP, the “shrunken log2 fold change” value is reported as -0.705. With RRIRGRPPRLPRPRPRPKHCPRP the “shrunken log2 fold change” value was 0.216. With RRIRMRPPRLPRPRPRPDGKPRP the “shrunken log2 fold change” value was 0.322. For RRIRWRPPRLPRPRPRPNTGPRP, the “shrunken log2 fold change” value was -0.096. With RRIRARPPRLPRPRPRPFCMPRP the “shrunken log2 fold change” value was 0.0299. In the case of RRIRWRPPRLPRPRPRPPAEPRP, the “shrunken log2 fold change” value is reported as 2.93. For RRIRYRPPRLPRPRPRPFFIPRP, the “shrunken log2 fold change” value was -1.11. For RRIRTRPPRLPRPRPRPKTLPRP, the “shrunken log2 fold change” value was 0.0791. In the case of RRIRGRPPRLPRPRPRPIPCPRP, the “shrunken log2 fold change” value is reported as 0.184. With RRIRCRPPRLPRPRPRPALCPRP the “shrunken log2 fold change” value was 0.185. In the case of RRIRLRPPRLPRPRPRPNAHPRP, the “shrunken log2 fold change” value is reported as -0.154. In the case of RRIRYRPPRLPRPRPRPAKTPRP, the “shrunken log2 fold change” value is reported as -0.00829. With RRIRYRPPRLPRPRPRPSGVPRP the “shrunken log2 fold change” value was -0.0951. In the case of RRIRNRPPRLPRPRPRPNDGPRP, the “shrunken log2 fold change” value is reported as -0.00674. With RRIRCRPPRLPRPRPRPNAWPRP the “shrunken log2 fold change” value was -0.247. In the case of RRIRKRPPRLPRPRPRPRFGPRP, the “shrunken log2 fold change” value is reported as 0.217. In the case of RRIRQRPPRLPRPRPRPAAWPRP, the “shrunken log2 fold change” value is reported as 0.245. With RRIRFRPPRLPRPRPRPHPGPRP the “shrunken log2 fold change” value was -0.137. In the case of RRIRDRPPRLPRPRPRPEFHPRP, the “shrunken log2 fold change” value is reported as 0.858. With RRIRFRPPRLPRPRPRPSLMPRP the “shrunken log2 fold change” value was -0.6. In the case of RRIRYRPPRLPRPRPRPCDLPRP, the “shrunken log2 fold change” value is reported as -0.618. RRIRSRPPRLPRPRPRPPPRPRP was tested, and the “shrunken log2 fold change” value was 1.09. For RRIRWRPPRLPRPRPRPIFPPRP, the “shrunken log2 fold change” value was 0.13. With RRIRSRPPRLPRPRPRPWKLPRP the “shrunken log2 fold change” value was -0.221. With RRIRMRPPRLPRPRPRPNATPRP the “shrunken log2 fold change” value was 2.16. With RRIRQRPPRLPRPRPRPNLLPRP the “shrunken log2 fold change” value was -0.0134. In the case of RRIRNRPPRLPRPRPRPHTGPRP, the “shrunken log2 fold change” value is reported as -0.313. RRIRLRPPRLPRPRPRPTTDPRP was tested, and the “shrunken log2 fold change” value was -0.287. With RRIRARPPRLPRPRPRPMQCPRP the “shrunken log2 fold change” value was 0.0593. With RRIRDRPPRLPRPRPRPCIDPRP the “shrunken log2 fold change” value was 0.0188. RRIRVRPPRLPRPRPRPNHLPRP was tested, and the “shrunken log2 fold change” value was -0.694. In the case of RRIRPRPPRLPRPRPRPDTKPRP, the “shrunken log2 fold change” value is reported as -0.0208. For RRIRRRPPRLPRPRPRPYWKPRP, the “shrunken log2 fold change” value was 0.0393. RRIRCRPPRLPRPRPRPWICPRP was tested, and the “shrunken log2 fold change” value was -1. For RRIRRRPPRLPRPRPRPVTPPRP, the “shrunken log2 fold change” value was 0.705. In the case of RRIRFRPPRLPRPRPRPGVCPRP, the “shrunken log2 fold change” value is reported as 0.307. RRIRRRPPRLPRPRPRPIPGPRP was tested, and the “shrunken log2 fold change” value was 0.292. With RRIRCRPPRLPRPRPRPKTDPRP the “shrunken log2 fold change” value was -0.0884. RRIRARPPRLPRPRPRPFTCPRP was tested, and the “shrunken log2 fold change” value was 0.0835. With RRIRNRPPRLPRPRPRPGYDPRP the “shrunken log2 fold change” value was 0.166. With RRIRTRPPRLPRPRPRPCNKPRP the “shrunken log2 fold change” value was -0.121. For RRIRNRPPRLPRPRPRPNIWPRP, the “shrunken log2 fold change” value was -0.636. In the case of RRIRSRPPRLPRPRPRPSVSPRP, the “shrunken log2 fold change” value is reported as -0.0446. RRIRYRPPRLPRPRPRPDPCPRP was tested, and the “shrunken log2 fold change” value was -0.0185. RRIRHRPPRLPRPRPRPIIAPRP was tested, and the “shrunken log2 fold change” value was -0.272. RRIRKRPPRLPRPRPRPNMEPRP was tested, and the “shrunken log2 fold change” value was -0.0503. RRIRQRPPRLPRPRPRPGPAPRP was tested, and the “shrunken log2 fold change” value was 0.114. With RRIRGRPPRLPRPRPRPESPPRP the “shrunken log2 fold change” value was 1.25. In the case of RRIRKRPPRLPRPRPRPKWDPRP, the “shrunken log2 fold change” value is reported as 0.361. In the case of RRIRKRPPRLPRPRPRPPNGPRP, the “shrunken log2 fold change” value is reported as 0.189. In the case of RRIRPRPPRLPRPRPRPGDAPRP, the “shrunken log2 fold change” value is reported as 0.398. With RRIRGRPPRLPRPRPRPNQKPRP the “shrunken log2 fold change” value was 0.0822. For RRIRFRPPRLPRPRPRPLHMPRP, the “shrunken log2 fold change” value was -1.06. For RRIRLRPPRLPRPRPRPAPQPRP, the “shrunken log2 fold change” value was 0.609. RRIRNRPPRLPRPRPRPIHWPRP was tested, and the “shrunken log2 fold change” value was 0.0944. In the case of RRIRLRPPRLPRPRPRPRGTPRP, the “shrunken log2 fold change” value is reported as 0.0155. For RRIRFRPPRLPRPRPRPLSFPRP, the “shrunken log2 fold change” value was 0.675. In the case of RRIRCRPPRLPRPRPRPRTTPRP, the “shrunken log2 fold change” value is reported as 0.472. In the case of RRIRMRPPRLPRPRPRPVTPPRP, the “shrunken log2 fold change” value is reported as 0.614. RRIRDRPPRLPRPRPRPCESPRP was tested, and the “shrunken log2 fold change” value was -0.00192. With RRIRVRPPRLPRPRPRPYQHPRP the “shrunken log2 fold change” value was -0.301. RRIRMRPPRLPRPRPRPRFQPRP was tested, and the “shrunken log2 fold change” value was 0.268. With RRIRWRPPRLPRPRPRPWMRPRP the “shrunken log2 fold change” value was 0.526. For RRIRNRPPRLPRPRPRPLHFPRP, the “shrunken log2 fold change” value was -0.563. RRIRYRPPRLPRPRPRPPMYPRP was tested, and the “shrunken log2 fold change” value was -1.28. RRIRQRPPRLPRPRPRPFFVPRP was tested, and the “shrunken log2 fold change” value was -0.0254. In the case of RRIRCRPPRLPRPRPRPQIGPRP, the “shrunken log2 fold change” value is reported as -0.00649. In the case of RRIRFRPPRLPRPRPRPHVQPRP, the “shrunken log2 fold change” value is reported as -0.0901. For RRIRDRPPRLPRPRPRPIGKPRP, the “shrunken log2 fold change” value was -0.153. In the case of RRIRNRPPRLPRPRPRPETQPRP, the “shrunken log2 fold change” value is reported as 0.162. For RRIRGRPPRLPRPRPRPAFQPRP, the “shrunken log2 fold change” value was 0.202. RRIRSRPPRLPRPRPRPGPPPRP was tested, and the “shrunken log2 fold change” value was 0.46. With RRIRWRPPRLPRPRPRPKCRPRP the “shrunken log2 fold change” value was 0.294. With RRIRRRPPRLPRPRPRPQRTPRP the “shrunken log2 fold change” value was 0.152.
